Source: IntAct's records for PubMed 31515488

B1: Beta-taxilin (Homo sapiens), Q8N3L3 (parent)
chain: MEANHSEQLSAERQSTPPGDSSSLPSHNGLEKEDGQDSPTPVQPPEKEASVHPDISEELNRQLEDIINTYGSAASTAGKEGSARASEQPENAESPDNEDGDCEETTEEAGREPVASGEPPTVKEPVSNKEQKLEKKILKGLGKEANLLMQNLNKLQTPEEKFDFLFKKYAELLDEHRTEQKKLKLLQKKQVQIQKEKDQLQGEHSRAILARSKLESLCRELQRHNKTLKEEALQRAREEEEKRKEITSHFQSTLTDIQGQIEQQSERNMKLCQENTELAEKLKSIIDQYELREEHLDKIFKHRELQQKLVDAKLEQAQEMMKEAEERHKREKEYLLNQAAEWKLQAKVLKEQETVLQAQLTLYSGRFEEFQSTLTKSNEVFATFKQEMDKTTKKMKKLEKDTATWKARFENCNKALLDMIEEKALRAKEYECFVMKIGRLENLCRALQEERNELHKKIRDAEISEKDDQSQHNSDEEPESNVSVDQEIDAEEVNSVQTAVKNLATAFMIIHHPESTPHQSKETQPEIGSSQESADAALKEPEQPPLIPSRDSESPLPPLTPQAEAEGGSDAEPPSKASNSPAGLGAETQCEGLPVGAQADQASWKPEAEASGQAPQAPTEASLQKMEADVPAPACAAEEHVAAMVPACEPSRQPPRAAAEELPVGASAGPQPRNVADTNLEGVD
partner: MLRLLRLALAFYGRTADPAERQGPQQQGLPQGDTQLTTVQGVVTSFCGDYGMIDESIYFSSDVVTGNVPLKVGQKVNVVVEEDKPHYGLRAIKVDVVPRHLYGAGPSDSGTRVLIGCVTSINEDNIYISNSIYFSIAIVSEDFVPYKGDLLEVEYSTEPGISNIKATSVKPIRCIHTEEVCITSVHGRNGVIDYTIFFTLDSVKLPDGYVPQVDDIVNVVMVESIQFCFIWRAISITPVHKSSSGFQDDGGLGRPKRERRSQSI
B2: Ropporin-1A (Homo sapiens), Q9HAT0 (parent)
chain: MAQTDKPTCIPPELPKMLKEFAKAAIRVQPQDLIQWAADYFEALSRGETPPVRERSERVALCNRAELTPELLKILHSQVAGRLIIRAEELAQMWKVVNLPTDLFNSVMNVGRFTEEIEWLKFLALACSALGVTITKTLKIVCEVLSCDHNGGSPRIPFSTFQFLYTYIAKVDGEISASHVSRMLNYMEQEVIGPDGIITVNDFTQNPRVQLE
partner: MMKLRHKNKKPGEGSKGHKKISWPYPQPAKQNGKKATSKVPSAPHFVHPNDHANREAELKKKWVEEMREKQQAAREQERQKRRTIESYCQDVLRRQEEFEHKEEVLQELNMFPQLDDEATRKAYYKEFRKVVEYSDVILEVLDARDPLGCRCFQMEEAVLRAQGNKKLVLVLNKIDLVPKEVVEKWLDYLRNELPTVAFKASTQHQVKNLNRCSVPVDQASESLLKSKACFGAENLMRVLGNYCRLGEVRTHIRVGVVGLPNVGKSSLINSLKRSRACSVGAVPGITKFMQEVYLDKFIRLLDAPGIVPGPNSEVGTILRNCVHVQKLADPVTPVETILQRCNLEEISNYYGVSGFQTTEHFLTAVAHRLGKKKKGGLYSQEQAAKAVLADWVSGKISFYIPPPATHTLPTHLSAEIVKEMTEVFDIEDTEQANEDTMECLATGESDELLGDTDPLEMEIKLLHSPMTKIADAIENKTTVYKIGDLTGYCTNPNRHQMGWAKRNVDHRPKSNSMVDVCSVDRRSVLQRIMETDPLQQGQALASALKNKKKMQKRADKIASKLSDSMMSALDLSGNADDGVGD
B3: Protein boule-like (Homo sapiens), Q8N9W6 (parent)
chain: MQTDSLSPSPNPVSPVPLNNPTSAPRYGTVIPNRIFVGGIDFKTNESDLRKFFSQYGSVKEVKIVNDRAGVSKGYGFVTFETQEDAQKILQEAEKLNYKDKKLNIGPAIRKQQVGIPRSSIMPAAGTMYLTTSTGYPYTYHNGVAYFHTPEVTSVPPPWPSRSVCSSPVMVAQPIYQQPAYHYQATTQYLPGQWQWSVPQPSASSAPFLYLQPSEVIYQPVEIAQDGGCVPPPLSLMETSVPEPYSDHGVQATYHQVYAPSAITMPAPVMQPEPIKTVWSIHY
partner: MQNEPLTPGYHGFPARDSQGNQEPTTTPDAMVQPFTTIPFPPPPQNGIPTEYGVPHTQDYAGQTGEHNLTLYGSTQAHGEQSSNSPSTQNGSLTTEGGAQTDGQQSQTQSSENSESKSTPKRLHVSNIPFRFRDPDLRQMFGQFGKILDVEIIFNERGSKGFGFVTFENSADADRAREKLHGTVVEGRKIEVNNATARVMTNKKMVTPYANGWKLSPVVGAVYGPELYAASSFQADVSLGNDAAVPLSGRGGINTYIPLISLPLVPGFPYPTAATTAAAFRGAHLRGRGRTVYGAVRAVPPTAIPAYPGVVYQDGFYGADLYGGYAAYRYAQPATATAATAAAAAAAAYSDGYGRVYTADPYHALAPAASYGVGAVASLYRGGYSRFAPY
B4: Medium-chain acyl-CoA ligase ACSF2, mitochondrial (Homo sapiens), Q96CM8 (parent)
chain: MAVYVGMLRLGRLCAGSSGVLGARAALSRSWQEARLQGVRFLSSREVDRMVSTPIGGLSYVQGCTKKHLNSKTVGQCLETTAQRVPEREALVVLHEDVRLTFAQLKEEVDKAASGLLSIGLCKGDRLGMWGPNSYAWVLMQLATAQAGIILVSVNPAYQAMELEYVLKKVGCKALVFPKQFKTQQYYNVLKQICPEVENAQPGALKSQRLPDLTTVISVDAPLPGTLLLDEVVAAGSTRQHLDQLQYNQQFLSCHDPINIQFTSGTTGSPKGATLSHYNIVNNSNILGERLKLHEKTPEQLRMILPNPLYHCLGSVAGTMMCLMYGATLILASPIFNGKKALEAISRERGTFLYGTPTMFVDILNQPDFSSYDISTMCGGVIAGSPAPPELIRAIINKINMKDLVVAYGTTENSPVTFAHFPEDTVEQKAESVGRIMPHTEARIMNMEAGTLAKLNTPGELCIRGYCVMLGYWGEPQKTEEAVDQDKWYWTGDVATMNEQGFCKIVGRSKDMIIRGGENIYPAELEDFFHTHPKVQEVQVVGVKDDRMGEEICACIRLKDGEETTVEEIKAFCKGKISHFKIPKYIVFVTNYPLTISGKIQKFKLREQMERHLNL

Variants of: B1
Conditions: with ct55_human CT55, Q8WUE5
T361A was tested, and the “effect of a mutation on the interaction” value was “with no effect”.

Variants of: B2
Conditions: with gnl3l_human GNL3L
With C62W the “effect of a mutation on the interaction” value was “with no effect”.

Variants of: B3
Conditions: with rfox2_human RBFOX2, O43251
With MQTDSLSPYPNPVSPVPLNNPTSAPRYGTVIPNRIFVGGIDFKTNESDLRKFFSQYGSVKEVKIVNDRAGVSKGYGFVTFETQEDAQKILQEAEKLNYKDKKLNIGPAIRKQQVGIPRSSIMPAAGTMYLTTSTGYPYTYHNGVAYFHTPEVTSVPPPWPSRSVCSSPVMVAQPIYQQPAYHYQATTQYLPGQWQWSVPQPSASSAPFLYLQPSEVIYQPVEIAQDGGCVPPPLSLMETSVPEPYSDHGVQATYHQVYAPSAITMPAPVMQPEPIKTVWSIHY [S9Y] the “effect of a mutation on the interaction” value was “with no effect”.
MQTDSLSPSPNPVSPVPLNNPTSAPRYGTVIPNRIFVGGIDFKTNESDLRKFFSQYGSVKEVKIVNDRAGVSKGYGFITFETQEDAQKILQEAEKLNYKDKKLNIGPAIRKQQVGIPRSSIMPAAGTMYLTTSTGYPYTYHNGVAYFHTPEVTSVPPPWPSRSVCSSPVMVAQPIYQQPAYHYQATTQYLPGQWQWSVPQPSASSAPFLYLQPSEVIYQPVEIAQDGGCVPPPLSLMETSVPEPYSDHGVQATYHQVYAPSAITMPAPVMQPEPIKTVWSIHY [V78I] was tested, and the “effect of a mutation on the interaction” value was “with no effect”.

Variants of: B4
Conditions: with atrap_human AGTRAP
G19W was tested, and the “effect of a mutation on the interaction” value was “disrupting interaction strength”.
A34V was tested, and the “effect of a mutation on the interaction” value was “disrupting interaction strength”.

Variants of: B4
Conditions: with ar6p1_human ARL6IP1, Q15041
Sequence of ar6p1_human ARL6IP1, Q15041 (Q15041 whole entry): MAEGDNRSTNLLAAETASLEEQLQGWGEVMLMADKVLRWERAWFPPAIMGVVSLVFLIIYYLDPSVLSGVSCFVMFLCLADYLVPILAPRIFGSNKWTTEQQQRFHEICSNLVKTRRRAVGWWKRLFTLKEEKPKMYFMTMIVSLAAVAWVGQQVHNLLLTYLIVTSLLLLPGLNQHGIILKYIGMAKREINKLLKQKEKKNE
In the case of G19W, the “effect of a mutation on the interaction” value is reported as “disrupting interaction strength”.
For A34V, the “effect of a mutation on the interaction” value was “disrupting interaction strength”.
